Data: US20240025992A1 (Janssen / Centocor, published 2024)
Read-outs that look alike come from different tables or passages of the source.

T1: recombinant human DLL3 (Example 9, construct not named) (human, UniProt Q9NYJ7 27-492, limits assumed)
T1 construct: also called DLL3 antigen
T1 sequence: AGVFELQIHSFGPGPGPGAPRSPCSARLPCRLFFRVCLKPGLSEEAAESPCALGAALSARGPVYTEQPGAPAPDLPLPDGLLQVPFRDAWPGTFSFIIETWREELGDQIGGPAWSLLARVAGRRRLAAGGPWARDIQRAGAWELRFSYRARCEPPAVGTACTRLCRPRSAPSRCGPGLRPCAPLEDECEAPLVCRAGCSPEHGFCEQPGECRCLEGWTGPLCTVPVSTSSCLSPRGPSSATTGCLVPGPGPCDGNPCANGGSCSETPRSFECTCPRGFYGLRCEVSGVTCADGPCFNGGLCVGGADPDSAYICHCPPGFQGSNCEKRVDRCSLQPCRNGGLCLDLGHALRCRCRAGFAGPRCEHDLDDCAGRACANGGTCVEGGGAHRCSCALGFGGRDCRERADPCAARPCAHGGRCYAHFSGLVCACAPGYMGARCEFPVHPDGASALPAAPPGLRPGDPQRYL

T2: human DLL3 on DLL3+ tumor cells (human, UniProt Q9NYJ7 27-618)
T2 sequence: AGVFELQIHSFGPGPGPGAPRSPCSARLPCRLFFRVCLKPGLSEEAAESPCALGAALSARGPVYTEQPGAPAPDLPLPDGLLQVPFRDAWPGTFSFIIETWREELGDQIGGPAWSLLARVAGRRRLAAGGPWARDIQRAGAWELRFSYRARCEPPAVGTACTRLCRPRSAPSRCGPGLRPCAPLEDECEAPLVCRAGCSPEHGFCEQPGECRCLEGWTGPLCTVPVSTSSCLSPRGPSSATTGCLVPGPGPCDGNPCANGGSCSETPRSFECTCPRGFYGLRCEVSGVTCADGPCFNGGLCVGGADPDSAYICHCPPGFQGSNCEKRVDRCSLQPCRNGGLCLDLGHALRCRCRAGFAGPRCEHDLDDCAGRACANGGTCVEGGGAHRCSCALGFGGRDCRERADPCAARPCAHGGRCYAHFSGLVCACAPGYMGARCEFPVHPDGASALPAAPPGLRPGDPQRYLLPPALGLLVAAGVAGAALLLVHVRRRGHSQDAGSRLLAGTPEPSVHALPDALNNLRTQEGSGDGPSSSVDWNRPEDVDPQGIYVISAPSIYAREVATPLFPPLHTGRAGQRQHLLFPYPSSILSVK

B1: DL3B585 (bispecific antibody, human IgG1, lambda, L234A L235A)
scFv: DIQMTQSPSSLSASVGDRVTITCRASQGISNYLAWFQQKPGKAPKSLIYAASSLQSGVPSKFSGSGSGTDFTLTISSLQPEDFATYYCQQYNSYPYTFAQGTKLEIKGGSEGKSSGSGSESKSTGGSQVQLVQSGAEVKKPGASVKVSCKASGNTFTNYYIHWVRQAPGQGLEWMGIINPSGGSTSYAQKLQGRMTMTRDTSTSTVYMELSSLRSEDTAVYFCARQGPFIGDAFDIWGQGTMVTVSSEPKSSDKTHTCPPCPAPEAAGGPSVFLFPPKPKDTLMISRTPEVTCVVVSVSHEDPEVKFNWYVDGVEVHNAKTKPREEQYNSTYRVVSVLTVLHQDWLNGKEYKCKVSNKALPAPIEKTISKAKGQPREPQVYVLPPSREEMTKNQVSLLCLVKGFYPSDIAVEWESNGQPENNYLTWPPVLDSDGSFFLYSKLTVDKSRWQQGNVFSCSVMHEALHNHYTQKSLSLS
heavy: QVQLQQSGPRLVRPSQTLSLTCAISGDSVFNNNAAWSWIRQSPSRGLEWLGRTYYRSKWLYDYAVSVKSRITVNPDTSRNQFTLQLNSVTPEDTALYYCARGYSSSFDYWGQGTLVTVSSASTKGPSVFPLAPSSKSTSGGTAALGCLVKDYFPEPVTVSWNSGALTSGVHTFPAVLQSSGLYSLSSVVTVPSSSLGTQTYICNVNHKPSNTKVDKKVEPKSCDKTHTCPPCPAPEAAGGPSVFLFPPKPKDTLMISRTPEVTCVVVSVSHEDPEVKFNWYVDGVEVHNAKTKPREEQYNSTYRVVSVLTVLHQDWLNGKEYKCKVSNKALPAPIEKTISKAKGQPREPQVYVYPPSREEMTKNQVSLTCLVKGFYPSDIAVEWESNGQPENNYKTTPPVLDSDGSFALVSKLTVDKSRWQQGNVFSCSVMHEALHNHYTQKSLSLSPG
light: QSALTQPASVSGSPGQSITISCTGTSSNIGTYKFVSWYQQHPDKAPKVLLYEVSKRPSGVSSRFSGSKSGNTASLTISGLQAEDQADYHCVSYAGSGTLLFGGGTKLTVLGQPKAAPSVTLFPPSSEELQANKATLVCLISDFYPGAVTVAWKADSSPVKAGVETTTPSKQSNNKYAASSYLSLTPEQWKSHRSYSCQVTHEGSTVEKTVAPTECS
notes: DLL3 arm: DL3B279-LH-scFv-Fc; CD3 arm: CD3B376-Fab-Fc; also called CD3B376-Fab; DL3B279-LH-scFv
B2: DL3B587 (bispecific antibody, human IgG1, kappa, L234A L235A)
scFv: DIQMTQSPSSLSASVGDRVTITCRASQGISNYLAWFQQKPGKAPKSLIYAASSLQSGVPSKFSGSGSGTDFTLTISSLQPEDFATYYCQQYNSYPYTFAQGTKLEIKGGSEGKSSGSGSESKSTGGSQVQLVQSGAEVKKPGASVKVSCKASGNTFTNYYIHWVRQAPGQGLEWMGIINPSGGSTSYAQKLQGRMTMTRDTSTSTVYMELSSLRSEDTAVYFCARQGPFIGDAFDIWGQGTMVTVSSEPKSSDKTHTCPPCPAPEAAGGPSVFLFPPKPKDTLMISRTPEVTCVVVSVSHEDPEVKFNWYVDGVEVHNAKTKPREEQYNSTYRVVSVLTVLHQDWLNGKEYKCKVSNKALPAPIEKTISKAKGQPREPQVYVLPPSREEMTKNQVSLLCLVKGFYPSDIAVEWESNGQPENNYLTWPPVLDSDGSFFLYSKLTVDKSRWQQGNVFSCSVMHEALHNHYTQKSLSLS
heavy: EVQLVESGGGLVKPGGSLRLSCAASGFTFSRYNMNWVRQAPGKGLEWVSSISTSSNYIYYADSVKGRFTFSRDNAKNSLDLQMSGLRAEDTAIYYCTRGWGPFDYWGQGTLVTVSSASTKGPSVFPLAPSSKSTSGGTAALGCLVKDYFPEPVTVSWNSGALTSGVHTFPAVLQSSGLYSLSSVVTVPSSSLGTQTYICNVNHKPSNTKVDKKVEPKSCDKTHTCPPCPAPEAAGGPSVFLFPPKPKDTLMISRTPEVTCVVVSVSHEDPEVKFNWYVDGVEVHNAKTKPREEQYNSTYRVVSVLTVLHQDWLNGKEYKCKVSNKALPAPIEKTISKAKGQPREPQVYVYPPSREEMTKNQVSLTCLVKGFYPSDIAVEWESNGQPENNYKTTPPVLDSDGSFALVSKLTVDKSRWQQGNVFSCSVMHEALHNHYTQKSLSLSPG
light: DIQMTQSPSSLSASVGDRVTITCRARQSIGTAIHWYQQKPGKAPKLLIKYASESISGVPSRFSGSGSGTDFTLTISSLQPEDFATYYCQQSGSWPYTFGQGTKLEIKRTVAAPSVFIFPPSDEQLKSGTASVVCLLNNFYPREAKVQWKVDNALQSGNSQESVTEQDSKDSTYSLSSTLTLSKADYEKHKVYACEVTHQGLSSPVTKSFNRGEC
notes: DLL3 arm: DL3B279-LH-scFv-Fc; CD3 arm: CD3W245-Fab-Fc; also called CD3W245-Fab; DL3B279-LH-scFv
B3: D3C3B80 (bispecific antibody, human IgG1, lambda, L234A L235A)
scFv: DIQMTQSPSSLSASVGDRVTITCRASQGISNYLAWFQQKPGKAPKSLIYAASSLQSGVPSKFSGSGSGTDFTLTISSLQPEDFATYYCQQYNSYPYTFGQGTKLEIKGGSEGKSSGSGSESKSTGGSQVQLVQSGAEVKKPGASVKVSCKASGQTFTNYYIHWVRQAPGQGLEWMGIINPSGGSTSYAQKLQGRMTMTRDTSTSTVYMELSSLRSEDTAVYFCARQGPFIGDAFDIWGQGTTVTVSSEPKSSDKTHTCPPCPAPEAAGGPSVFLFPPKPKDTLMISRTPEVTCVVVSVSHEDPEVKFNWYVDGVEVHNAKTKPREEQYNSTYRVVSVLTVLHQDWLNGKEYKCKVSNKALPAPIEKTISKAKGQPREPQVYVLPPSREEMTKNQVSLLCLVKGFYPSDIAVEWESNGQPENNYLTWPPVLDSDGSFFLYSKLTVDKSRWQQGNVFSCSVMHEALHNHYTQKSLSLSPGK
heavy: QVQLQQSGPRLVRPSQTLSLTCAISGDSVFNNNAAWSWIRQSPSRGLEWLGRTYYRSKWLYDYAVSVKSRITVNPDTSRNQFTLQLNSVTPEDTALYYCARGYSSSFDYWGQGTLVTVSSASTKGPSVFPLAPSSKSTSGGTAALGCLVKDYFPEPVTVSWNSGALTSGVHTFPAVLQSSGLYSLSSVVTVPSSSLGTQTYICNVNHKPSNTKVDKKVEPKSCDKTHTCPPCPAPEAAGGPSVFLFPPKPKDTLMISRTPEVTCVVVSVSHEDPEVKFNWYVDGVEVHNAKTKPREEQYNSTYRVVSVLTVLHQDWLNGKEYKCKVSNKALPAPIEKTISKAKGQPREPQVYVYPPSREEMTKNQVSLTCLVKGFYPSDIAVEWESNGQPENNYKTTPPVLDSDGSFALVSKLTVDKSRWQQGNVFSCSVMHEALHNHYTQKSLSLSPGK
light: QSALTQPASVSGSPGQSITISCTGTSSNIGTYKFVSWYQQHPDKAPKVLLYEVSKRPSGVSSRFSGSKSGNTASLTISGLQAEDQADYHCVSYAGSGTLLFGGGTKLTVLGQPKAAPSVTLFPPSSEELQANKATLVCLISDFYPGAVTVAWKADSSPVKAGVETTTPSKQSNNKYAASSYLSLTPEQWKSHRSYSCQVTHEGSTVEKTVAPTECS
notes: DLL3 arm: DL3B279 variant LH-scFv-Fc (ZW); CD3 arm: CD3B376-K477-Fab-Fc; also called CD3B376-Fab

Columns and labels:
[1] = molecular target: T1, recombinant human DLL3 (Example 9, …); experiment: SPR (Biacore T200), antibody captured by goat anti-Fc on a C1 chip, DLL3 titrated
Method: (§1) The binding affinity of anti-DLL3×CD3 antibodies to the recombinant human DLL3 was determined by surface plasmon resonance (SPR) using a Biacore T200 instrument. […] The association was monitored for 2 minutes and the and dissociation for 5 or 60 minutes, using a flow rate of 100 μL/min. Raw binding data was referenced by subtracting the analyte binding signals from blanks and analyzed using a 1:1 Langmuir binding model using the Biacore Insight evaluation software to obtain the kinetics which were used to calculate the binding affinity.

[2] = molecular target: T1, recombinant human DLL3 (Example 9, …); experiment: as above; remark: listed apart in the source
Method: as §1

[3] = molecular target: T2, human DLL3 on DLL3+ tumor cells; experiment: cell-based or functional assay
[4] = molecular target: T3, human CD3 (CD3 epsilon as part of the T cell receptor complex) on cells (human, UniProt P07766 23-207); experiment: flow cytometry on human pan T cells, antibody titrated 3-fold from 100 nM, AlexaFluor 647 anti-human secondary antibody, GEO Mean
T3 construct: also called CD3 on Jurkat cells; CD3 on human pan T cells
T3 sequence (P07766 23-207 limits assumed, one chain of several): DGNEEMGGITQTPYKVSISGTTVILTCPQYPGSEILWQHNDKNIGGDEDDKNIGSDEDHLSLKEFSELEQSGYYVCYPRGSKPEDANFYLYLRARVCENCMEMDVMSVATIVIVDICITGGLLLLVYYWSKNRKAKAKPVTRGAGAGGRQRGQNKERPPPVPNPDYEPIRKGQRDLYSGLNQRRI
Method: (§2) Human Pan T Cells (Biological Specialty Corporation, Colmar, PA) were thawed and transferred to a 15 mL conical with DPBS (Dulbecco's Phosphate Saline Buffer). The cells were centrifuged 1300 rpm for 5 minutes. DPBS was aspirated and the cells were re-suspended in DPBS. The cells were counted using the Vi-cell XR cell viability analyzer and were plated at 100K/well in 100 μL DPBS. The plate was centrifuged 1200 rpm for 3 minutes and washed 2× with DPBS. The cells were stained with Violet Live/Dead stain (Thermo-Fisher) and incubated at RT in the dark for 25 min. The cells were centrifuged and washed 2× with FACS staining buffer (BD Pharmingen). Test antibodies were diluted to a final starting concentration of 100 nM in FACS staining buffer and 3-fold serial dilutions were prepared from the starting concentration for a total of 10 dilution points. The serially diluted test antibodies (100 uL/well) were added to the cells and incubated for 30 min at 37°. […] Cells were washed 2× with FACS staining buffer and re-suspended in 100 uL FACS Buffer. Cells were run on BD Celesta using FACS Diva software and analyzed using FlowJo software.

[5] = molecular target: T3, human CD3 (CD3 epsilon as part of the T …); experiment: flow cytometry on human T cells (sheet title 'T cells', GEO Mean against concentration; assay as told in p-1138)
Method: as §2

Row | Binder | Kd [1] [pM] | Kd [2] [pM] | Cytotoxicity (% Lysis), SHP-77, whole PBMCs, 1:1 ET ratio, 30 nM [3] [%] | binding result [4] | binding result [5]
1 | B1 | 24 | 24 | 58.1 | – | –
2 | B2 | 31 | – | 83.3 | binds | –
3 | B3 | – | 33 | – | – | binds
